Target: mosPTP-1 including the transmembrane region (91bp-2202bp), Aedes aegypti AAEL013105, on S2 cells (Aedes aegypti)
Experiment: flow cytometry on cells

mosGCTL-1 (mosquito Galactose-specific binding C-Type Lectin), Aedes aegypti AAEL000563 (natural protein)
percent of mosPTP-1-expressing cells that bound mosGCTL-1: > 40%

Reference: paper PMC2954371
